Drawing on the supplement of paper PMC10567573, this text covers protein stability index for 72 sequences.

This data set in a line: protein stability index of a GFP-peptide fusion (GPS, HEK-293T) (PSI 1-6); higher = more stable.
The mark [1] stands for this setting: treatment: DMSO, c terminus: a fixed tail appended.
Setting [2] is: treatment: MLN4924 1 uM, 8 h, c terminus: a fixed tail appended.

± gives the standard deviation.
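Further: 24-mer peptide tiles fused after GFP, lentivirally expressed, FACS-sorted into six equal bins by GFP/DsRed ratio, decoded by Illumina sequencing, PSI is the read-weighted mean bin number.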

For the sequence MRQDLEEERVALNTEIEKLGRSIV [PKD2L1], the protein stability index by setting is: under setting [1], 4.29 ± 0.13; under setting [2], 4.38 ± 0.23.
The matching figures for QLKIAANPFAKGFRENGRNCKRER [TBX6]: 3.33 ± 0.25 and 3.47 ± 0.33.
The matching figures for KLCKKGLAATTSMAYAKLMLTVMT [FANCE]: 2.33 ± 0.52 and 2.22 ± 0.43.
The matching figures for DYGVDPSQFSGTLMRTCERLVKEG [PPTC7]: 3.72 ± 0.42 and 3.79 ± 0.35.
For the sequence APIDWIEEYTTGMADCILVNSQFT [ALG2], the protein stability index runs as follows: under setting [1], 2.64 ± 0.25; under setting [2], 2.81 ± 0.49.
Consider VSLKQEGDDQPSETDHLSMEEEDP [TPRG1], for which the protein stability index is, setting by setting: under setting [1], 5.61 ± 0.22; under setting [2], 5.63 ± 0.2.
The matching figures for VEGKGNGIKTVIVNMVDVAKALNR [EIF5]: 2.14 ± 0.21 and 2.22 ± 0.31.
The matching figures for EFPDFYDSEEPVSTHQEAENEKDR [CHGB]: 5.68 ± 0.25 and 5.54 ± 0.24.
The matching figures for SAASTSFQPQPVQPQQGYIPPMAQ [ZNF207]: 4.3 ± 0.17 and 4.38 ± 0.1.
In the case of CEQCGKCKCGECTAPRTLPSCLAC [SPRY1], the protein stability index runs as follows: under setting [1], 4.34 ± 0.2; under setting [2], 4.56 ± 0.22.
DVLRGNDETIGFEDILNDPSQSEV [POMP]: the protein stability index reads like this: under setting [1], 5.13 ± 0.092; under setting [2], 5.21 ± 0.17.
The matching figures for RLSTSPVRLAARQEDAPMIEPLVP [EPB41L3]: 4.6 ± 0.18 and 4.63 ± 0.43.
For SSQPQDNSQVHRETEDVDYGETDF [TMEM40], the protein stability index reads like this: under setting [1], 5.58 ± 0.26; under setting [2], 5.64 ± 0.3.
The matching figures for EFGYNAETQKLLCKNGETLLGAVN [ARFIP2]: 3.31 ± 0.042 and 3.29 ± 0.38.
In the case of KVLNMWCCCFFKRRKRKTIQRHK [CSNK1G3], the protein stability index (treatment: DMSO, c terminus: native) worked out at 2.56 ± 0.16 and the protein stability index (treatment: MLN4924 1 uM, 8 h, c terminus: native) was 2.86 ± 0.22.
Regarding PAAGRELPPDMTVVPGDHLLEPEV [KCNA3], the protein stability index reads like this: under setting [1], 5.3 ± 0.15; under setting [2], 5.31 ± 0.08.
GAEDGDRAILYPCHGMSSQLVRYS [GALNT9]: the protein stability index was determined as 3.09 ± 0.17 under setting [1] and 3.16 ± 0.29 under setting [2].
The matching figures for VCALSALPAGPLPAPLLVLCPSRA [PLEKHN1]: 2.12 ± 0.2 and 2.18 ± 0.16.
Regarding ELEEDDGHGAEQAAAFPTEDSRTS [EHMT1], the protein stability index reads like this: under setting [1], 5.65 ± 0.17; under setting [2], 5.7 ± 0.088.
The matching figures for TLQGLYLVYHPVQLSTPHAVGVLL [DHCR7]: 3.18 ± 0.49 and 2.97 ± 0.5.
The matching figures for QIEYEYKLAQALHEMREQHDAQVR [LMNB1]: 3.83 ± 0.38 and 3.83 ± 0.34.
The matching figures for LPEAPPKKFLTLGSKFRYSGRTQA [EPB41L3]: 3 ± 0.28 and 3.18 ± 0.39.
In the case of GTVIGVTSCIVIILIIISVIVQIK [NETO1], the protein stability index by setting is: under setting [1], 3.16 ± 0.34; under setting [2], 3.02 ± 0.36.
The matching figures for NREHLVMMEKILGPIPSHMIHRTR [CLK3]: 2.79 ± 0.34 and 2.89 ± 0.33.
The matching figures for NPKLPNISLDVLQPSFPEILLESH [POMT2]: 3.52 ± 0.21 and 3.84 ± 0.34.
The matching figures for DGLPLHFFIQTVRPKDTVMCYRVR [MYORG]: 2.15 ± 0.43 and 2.24 ± 0.31.
Regarding EKVLDQVETELQRRNEETPEEGQQ [GDAP1], the protein stability index was found to be 5.68 ± 0.14 under setting [1] and 5.64 ± 0.093 under setting [2].
The matching figures for KQQWEIMHKHNETSQKIAARAFAQ [RSPH3]: 3.41 ± 0.2 and 3.38 ± 0.14.
The matching figures for KLGPALKIYEYHVKPLQTKHLKNN [SAMD13]: 2.46 ± 0.14 and 2.54 ± 0.22.
The matching figures for SHLPTRSPSFPEAPDSGRSAPYSA [TBX6]: 4.61 ± 0.21 and 4.52 ± 0.28.
Consider LLYNRSNNKYSYTSNSDDNMLKNI [KCTD10], for which the protein stability index was determined as 2.52 ± 0.28 under setting [1] and 2.74 ± 0.6 under setting [2].
The matching figures for QTEPQDRSPAPMSCDKSTQTPSPP [BCL2L11]: 5.58 ± 0.14 and 5.38 ± 0.23.
On to PLQGTDEDAVASADFSSMLSEEEK [TPD52L1], for which the protein stability index worked out at 5.48 ± 0.58 under setting [1] and 5.69 ± 0.094 under setting [2].
Consider DYSRPLHISTFINELDSGFRLLNL [TSN], for which the protein stability index turned out to be 2.11 ± 0.27 under setting [1] and 2.21 ± 0.088 under setting [2].
Consider LCKATSPADALQYLLQFARKPVEA [INTS4], for which the protein stability index runs as follows: under setting [1], 2.05 ± 0.28; under setting [2], 2.12 ± 0.29.
The matching figures for REPPQAVSIKEAAGSSNLPAPERT [VENTX]: 5.26 ± 0.3 and 5.2 ± 0.54.
In the case of VLTDSNHVPLQRLSLLVHNVSVMH [FBXO33], the protein stability index runs as follows: under setting [1], 1.96 ± 0.3; under setting [2], 2.22 ± 0.28.
The sequence LGNFKDDLLNVCMRHVEKMCKADL [TRIM29] returned a protein stability index under setting [1] of 2.36 ± 0.13 and a protein stability index under setting [2] of 2.47 ± 0.19.
For EAAGESLEEEIRRKQILLRGKLKK [ZC2HC1C], the protein stability index under setting [1] is 4.87 ± 0.33 and the protein stability index under setting [2] worked out at 4.59 ± 0.35.
The matching figures for ENYNNLANAVISVSGINHDVTSGD [CPN1]: 4.28 ± 0.2 and 4.4 ± 0.14.
The matching figures for GPPPGAPHTPQTPGQGGPASTPAQ [NR2F2]: 5.34 ± 0.18 and 5.34 ± 0.16.
The matching figures for SQVSYFTYIPENNARGASIFSVTA [PCDHGA10]: 2.29 ± 0.56 and 2.39 ± 0.54.
LLRDPADASEAHESSSRGEAGAPG [CHGB]: the protein stability index is, setting by setting: under setting [1], 5.45 ± 0.28; under setting [2], 5.34 ± 0.24.
The matching figures for EAELELLRQFDLAWQYGPCTGITR [POLD4]: 2.85 ± 0.3 and 2.67 ± 0.3.
The matching figures for LAWRIVNDTYRTDLCLLYPPFMIA [CCNC]: 2.86 ± 0.49 and 3.34 ± 0.71.
The matching figures for TVLTRSLFLGRILSLTSSASRLLT [FANCE]: 2.72 ± 0.13 and 2.81 ± 0.2.
Consider EPPPALPPAADAPVTQIGFEAPPL [TRIM55], for which the protein stability index worked out at 5.24 ± 0.22 under setting [1] and 5.39 ± 0.11 under setting [2].
The matching figures for LRTTVHHAFPVVTENRGNEKEFMK [CLCN6]: 4.05 ± 0.27 and 4.38 ± 0.098.
In the case of DKFKRPTPPPSPNTQTPVQPPPPP [CCDC6], the protein stability index is, setting by setting: under setting [1], 5.03 ± 0.091; under setting [2], 5.12 ± 0.16.
The matching figures for RKKDKTWMHTPEALSKHFIPYNAK [GULP1]: 2.82 ± 0.25 and 2.99 ± 0.47.
On to WDLRFRIIHETAVGMNFLHCMAPP [RIPK4], for which the protein stability index reads like this: under setting [1], 2.89 ± 0.73; under setting [2], 2.82 ± 0.83.
The matching figures for AANHWVLPAAEFHGLWDSLVYDVE [TRIP13]: 2.62 ± 0.31 and 2.66 ± 0.22.
The matching figures for ASASKFPSSGPVTPQPTALTFAKS [AUP1]: 4.33 ± 0.17 and 4.36 ± 0.38.
DERRQLQHLKSKALRERWLLEGTP [PALM]: the protein stability index came to 3.54 ± 0.44 under setting [1] and 3.71 ± 0.23 under setting [2].
The matching figures for LRQRRPLRPQVVTDDDGQAPEAKD [APMAP]: 5.43 ± 0.16 and 5.52 ± 0.12.
The matching figures for QMKQKVQSLYQEVFGRLRDENGRP [NFE2L1]: 2.66 ± 0.35 and 3.65 ± 0.48.
On to MRFASGRPAFVRVRRGHSHLAPSE, for which the protein stability index runs as follows: under setting [1], 3.08 ± 0.22; under setting [2], 3.29 ± 0.4.
The matching figures for VFCREGPTHQAHTVGFLDEAIQPY [TRIM15]: 2.85 ± 0.31 and 2.83 ± 0.24.
PKNREYDRFYVINYLVRLSFHNLK [ZNF277]: the protein stability index by setting is: under setting [1], 3.03 ± 1.2; under setting [2], 2.29 ± 0.31.
The matching figures for LGSDDINVVTCAAGILSNLTCNNY [CTNNB1]: 2.27 ± 0.22 and 2.37 ± 0.22.
The matching figures for EIPERRDSGVGASLTRSNRHRLRW [DLC1]: 4.17 ± 0.35 and 4.36 ± 0.32.
As to KEFTLLLSAANVCLDPIIYFFLCQ [P2RY14], the protein stability index reads like this: under setting [1], 3.06 ± 0.56; under setting [2], 2.97 ± 0.17.
As to SFLFLGCSHSFLLAVMGYDRYIAI [OR10K2], the protein stability index turned out to be 3.14 ± 0.21 under setting [1] and 2.83 ± 0.59 under setting [2].
Turning to HLSRQKIDPLLYMTEWFMCAFSRT [TBC1D10A], the protein stability index reads like this: under setting [1], 2.8 ± 0.31; under setting [2], 2.67 ± 0.55.
The matching figures for AAEEPGVRGLLASLFAFKSFRENW [C2CD2L]: 2.44 ± 0.19 and 2.65 ± 0.032.
The matching figures for CRNCINLQNEAQKRESFLKYKCLL [IQUB]: 2.08 ± 0.44 and 2.22 ± 0.26.
The matching figures for CEEEVFPLAMNYLDRFLSLEPVKK [CCND1]: 3.36 ± 0.16 and 3.3 ± 0.28.
As to KSSTVGLVTLNDMKAKQEALVKER [FAM50A], the protein stability index under setting [1] was 4.69 ± 0.31 and the protein stability index under setting [2] turned out to be 4.45 ± 0.39.
The matching figures for KALWEDKTSLWEEENALWEEERAF [CCDC70]: 3.79 ± 0.18 and 3.87 ± 0.14.
The matching figures for VKFCLLGALLAPIRVLLAFIVLFL [LPCAT4]: 2.15 ± 0.29 and 1.86 ± 0.2.
Turning to LDKSTKLVETAIQSLDEPGGATFL [TRIM63], the protein stability index turned out to be 4.13 ± 0.29 under setting [1] and 4.17 ± 0.28 under setting [2].
The matching figures for LANGRALSAGSPPVPPGWNPNSSS [DLX1]: 3.93 ± 0.22 and 4 ± 0.29.
